Source: patent publication US20190330316A1 (published 2019)
Residue numbers refer to the chain shown, from its start. One block for each binder: values may come before it.

Molecular target: recombinant human tau (human, UniProt P10636 1-383)
Assay: SPR

Sequence of recombinant human tau (P10636 other isoform, or with tags, fused parts or gaps): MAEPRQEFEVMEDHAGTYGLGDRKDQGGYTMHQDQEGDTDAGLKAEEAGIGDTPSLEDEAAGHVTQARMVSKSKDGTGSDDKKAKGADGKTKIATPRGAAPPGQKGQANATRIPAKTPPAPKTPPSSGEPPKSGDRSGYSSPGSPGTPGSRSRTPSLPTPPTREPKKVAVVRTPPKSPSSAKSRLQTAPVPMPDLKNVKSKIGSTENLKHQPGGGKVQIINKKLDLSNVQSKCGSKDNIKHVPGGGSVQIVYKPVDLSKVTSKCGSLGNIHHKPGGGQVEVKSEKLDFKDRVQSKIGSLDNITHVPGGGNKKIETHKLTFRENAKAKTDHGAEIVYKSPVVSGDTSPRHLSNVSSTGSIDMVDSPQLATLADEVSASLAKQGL

Kd: 0.303 nM
B1: hu16G7VHv2b/hu16G7VLv2 (antibody, V domains shown)
VH: EVQLVQSGAEVVKPGASVKVSCKASGYTFTSSWIHWVRQRPGQGLEWIGEIYPNSGNTNYNEKFKGRVTLTRDISISTAYMELSRLTSDDTAVYYCARLGWLIPLDYWGQGTTVTVSS
VL: DIVLTQSPSSLAVSVGERATISCKSSQSLLDGNDQKNYLAWYQQKPGQSPKLLIYWASTRESGVPDRFSGSGSGTDFTLTISSLQAEDVAVYYCQQFYDYPWTFGGGTKLEIKR

Kd: 0.293 nM
B3: hu16G7VHv7/hu16G7VLv2 (antibody, V domains shown)
VH: B1 VH with S7P, V12K, R40A, I48M, L70M, R72V, T87R
VL: B1 VL

Further lines, the binder ahead of its results:

B2: hu16G7VHv2a/hu16G7VLv2 (antibody, V domains shown)
VH: B1 VH with R67K, V68A, R72V
VL: B1 VL
Kd: 0.277 nM

B4: chimeric 16G7 antibody (antibody, V domains shown)
VH: QVQLQQPGSVLVRPGASVKLSCKASGYTFTSSWIHWAKQRPGQGLEWIGEIYPNSGNTNYNEKFKGKATLTVDISSSTAYVDLTSLTSEDSAVYYCARLGWLIPLDYWGQGTTLIVSS
VL: B1 VL with T5S, R18K, A19V, I21M, I54M, S69T, Q85K, V89L
Kd: 0.187 nM
